These results are taken from publication PMC11430019 (bioRxiv, 2024).

The target of experiment [1] is HSV-2 gH ectodomain / gL heterodimeric complex (gH_(ecto)/gL) (HSV-2, UniProt P89445;P28278). The experiment can be described thus: cryo-EM structure.
For experiment [2], the target named is HSV-2 gH ectodomain (gH_(ecto)) (HSV-2, UniProt P89445). The experiment can be described thus: cryo-EM structure.
Chain of HSV-2 gH ectodomain (gH_(ecto)) (P89445 19-803): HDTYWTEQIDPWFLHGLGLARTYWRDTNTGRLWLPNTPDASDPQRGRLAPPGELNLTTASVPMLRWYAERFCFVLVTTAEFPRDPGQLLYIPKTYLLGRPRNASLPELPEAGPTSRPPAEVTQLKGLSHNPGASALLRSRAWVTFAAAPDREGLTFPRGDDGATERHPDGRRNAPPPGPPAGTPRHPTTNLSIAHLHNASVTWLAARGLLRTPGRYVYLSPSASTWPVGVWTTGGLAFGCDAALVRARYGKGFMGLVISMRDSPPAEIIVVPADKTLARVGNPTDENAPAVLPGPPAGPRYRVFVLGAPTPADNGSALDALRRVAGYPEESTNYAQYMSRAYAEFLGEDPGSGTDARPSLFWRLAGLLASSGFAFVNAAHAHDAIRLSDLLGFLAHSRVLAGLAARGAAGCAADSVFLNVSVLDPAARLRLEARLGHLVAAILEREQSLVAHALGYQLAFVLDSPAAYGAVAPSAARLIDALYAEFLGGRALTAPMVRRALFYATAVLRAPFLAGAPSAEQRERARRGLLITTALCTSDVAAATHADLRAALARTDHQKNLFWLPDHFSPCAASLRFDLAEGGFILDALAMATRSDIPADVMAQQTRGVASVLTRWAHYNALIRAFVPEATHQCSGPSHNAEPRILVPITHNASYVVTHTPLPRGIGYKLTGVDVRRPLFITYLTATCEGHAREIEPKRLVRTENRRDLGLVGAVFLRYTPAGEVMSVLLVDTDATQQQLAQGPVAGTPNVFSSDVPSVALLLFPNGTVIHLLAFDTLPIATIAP

Chain of HSV-2 gH ectodomain / gL heterodimeric complex (gH_(ecto)/gL) (P89445 19-803, chain 1 of 2): as the sequence (P89445 19-803) above
Chain of HSV-2 gH ectodomain / gL heterodimeric complex (gH_(ecto)/gL) (P28278 17-224, chain 2 of 2): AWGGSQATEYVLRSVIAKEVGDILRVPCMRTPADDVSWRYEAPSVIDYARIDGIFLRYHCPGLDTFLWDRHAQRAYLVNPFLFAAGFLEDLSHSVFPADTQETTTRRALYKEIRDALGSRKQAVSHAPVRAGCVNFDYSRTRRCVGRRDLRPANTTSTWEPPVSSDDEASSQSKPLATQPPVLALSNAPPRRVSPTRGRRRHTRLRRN

B1: CHL27 Fab (Fab, V domains shown)
VH: QIQLVQSGPELKKPGETVKISCRASGYTFTDYSMHWVKQAPGKGLQWMGWIDTETGEPTYADDFKGRFAFSLETSAITAYLQINNLKNEDTATYFCARGLSPYWGHGTLVTVSA
VL: NIVMTQSPKSMSMSVGERVTLSCKASENVGSYVSWYQQKPEQSPKLLIYGASIRHTGVPDRFAGSGSATDFTLTISSVQAEDLAAYHCGQTYSSPYTFGGGTKLEIK
Take B1: the binding result in experiment [1] and in experiment [2] was “binds” in each case.
